In the experiment the target is T1, IKKβ, endogenous, in Rat-1 and 5R cell extracts (rat (from the cell line Rat-1; not …, UniProt Q9QY78 1-757).
T1 construct: Endogenous protein of a cell extract; also called IKK-beta
T1 sequence (looked up): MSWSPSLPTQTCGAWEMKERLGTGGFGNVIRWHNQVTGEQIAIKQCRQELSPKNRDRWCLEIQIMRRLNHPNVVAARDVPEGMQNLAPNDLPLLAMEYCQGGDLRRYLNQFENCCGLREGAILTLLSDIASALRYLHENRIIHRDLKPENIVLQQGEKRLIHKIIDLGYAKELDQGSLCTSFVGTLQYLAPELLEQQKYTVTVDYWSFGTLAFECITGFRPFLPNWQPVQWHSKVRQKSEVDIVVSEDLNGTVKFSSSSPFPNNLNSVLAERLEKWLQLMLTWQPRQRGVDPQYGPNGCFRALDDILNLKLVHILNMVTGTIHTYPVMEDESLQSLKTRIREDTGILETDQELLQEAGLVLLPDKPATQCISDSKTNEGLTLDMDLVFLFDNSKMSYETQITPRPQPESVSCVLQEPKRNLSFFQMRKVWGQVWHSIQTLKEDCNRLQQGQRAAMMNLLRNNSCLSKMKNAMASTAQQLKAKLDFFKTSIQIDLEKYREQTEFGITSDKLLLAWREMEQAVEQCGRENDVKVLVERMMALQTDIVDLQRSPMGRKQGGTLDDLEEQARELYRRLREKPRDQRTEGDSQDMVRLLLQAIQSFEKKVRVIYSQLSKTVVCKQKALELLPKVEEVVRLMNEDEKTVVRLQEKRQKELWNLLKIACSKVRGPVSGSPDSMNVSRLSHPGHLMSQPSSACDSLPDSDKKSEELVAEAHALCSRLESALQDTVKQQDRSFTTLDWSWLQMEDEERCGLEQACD
Nature of the experiment: glycerol gradient ultracentrifugation of cell extracts, co-migration.

Description: Fractions (160 μl) were collected using the Piston Gradient Fractionator (Biocomp, Serlabo) and their absorbance at 280 nm was measured. To calibrate the gradient, standard proteins were applied to glycerol gradient and in parallel. The reproducibility of each glycerol gradient was also checked by measuring in each fraction the enzymatic activity of an endogenous marker, NDP kinase (110 kDa).

B1: NEMO (NF-κB essential modulator), endogenous, in Rat-1 cell extracts (other, UniProt Q6TMG5 1-412, looked up)
chain: MSRHLWKNQLSEMVQPSGGPAEDQDMLGEESSLGKPAMLHLPSEQGTPETLQRCLEENQELRDAIRQSNQMLRERCEELLHFQVSQREEKEFLMCKFQEARKLVERLSLEKLDLRRQREQALEDLEHLKKCQQQMAEDKASVKAQVTSLLGELQESQSRLEAATKERQTLEGRIRAVSEQVRQLESEREVLQQQHSVQVDQLRMQNQSVEAALRMERQAASEEKRKLAQLQAAYHQLFQDYDSHIKSSKGMQLEDLRQQLQQAEEALVAKQELIDKLKEEAEQHKIVMETVPVLKAQADIYKADFQAERHAREKLVERKELLQEQLEQLQREFNKLKVGCHESARIEDMRKRHVETSQPPLLPAPAHHSFHLALSNQRRSPPEEPPDFCCPKCQYQAPDMDTLQIHVMECIE
notes: Endogenous protein of a cell extract; also called IKK gamma
As for B1, the binding result is listed as “binds”.

These data come from patent US20080050763A1 (INSTITUT PASTEUR, published 2008).
